The record followed here is patent US20210025877A1 (CYTOMX THERAPEUTICS, published 2021).

In this assay the target is T1, anti-PDL1 activatable antibody PL07-2001-C5H9v2 (intact).
T1 construct: In the Wes assay the sample is separated by SDS-based capillary electrophoresis before probing; also called AA
Briefly: Wes capillary electrophoresis immunoassay, mouse plasma.

T1 sequence (heavy, as listed by the source, chain 1 of 2): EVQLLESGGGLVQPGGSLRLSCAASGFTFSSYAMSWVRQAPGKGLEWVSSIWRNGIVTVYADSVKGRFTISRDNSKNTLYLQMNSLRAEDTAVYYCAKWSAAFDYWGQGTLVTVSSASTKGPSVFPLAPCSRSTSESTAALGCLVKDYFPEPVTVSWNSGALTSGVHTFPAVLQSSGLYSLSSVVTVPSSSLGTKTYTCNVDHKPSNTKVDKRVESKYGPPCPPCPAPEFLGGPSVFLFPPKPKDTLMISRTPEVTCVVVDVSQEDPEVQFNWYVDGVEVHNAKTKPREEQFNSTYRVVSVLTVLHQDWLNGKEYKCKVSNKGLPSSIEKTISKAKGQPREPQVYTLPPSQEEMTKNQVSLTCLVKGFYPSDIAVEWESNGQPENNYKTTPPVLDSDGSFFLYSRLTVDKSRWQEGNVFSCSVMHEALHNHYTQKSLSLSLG
T1 sequence (light, as listed by the source, chain 2 of 2): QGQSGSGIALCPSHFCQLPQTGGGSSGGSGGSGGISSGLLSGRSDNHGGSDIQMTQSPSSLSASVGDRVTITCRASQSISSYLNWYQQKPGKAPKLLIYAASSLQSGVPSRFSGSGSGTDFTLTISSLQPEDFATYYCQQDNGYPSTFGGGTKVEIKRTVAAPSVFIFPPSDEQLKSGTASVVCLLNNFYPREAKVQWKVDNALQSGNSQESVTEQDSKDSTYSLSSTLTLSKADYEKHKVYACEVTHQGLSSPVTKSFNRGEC

B1: anti-idiotypic antibody 17G1 (antibody, mouse IgG2a, kappa, V domains shown)
VH: EVQLVESGGDLVKPGGSLKVSCAASGFTFSSYGMSWVRQTPDKRLEWVATISPSGIYTYYPVTVKGRFTISRDNAKNTLYLQMSSLKSEDTAMYFCARHHPNYGSTYLYYIDYWGQGTALTVSS
VL: NIMMTQSPSSLAVSAGEKVTMACKSSQSVFSSSNQKNYLAWYQQKPGQSPKILIYWAFTRESGVPDRFSGSGSGTDFTLTISSVQAEDLAVYYCYQYLSSLTFGAGTKLEVKA
notes: Mouse monoclonal, mIgG2a heavy chain and mouse kappa light chain; also called anti-id antibody 17G1; anti-id 17G1 antibody
Turning to B1, the binding result is given as “binds”.
